Publication PMC6521718 (Molecular cell, 2018)
Like-named read-outs stand apart in the source and are kept apart here.

How the values were obtained:
cryo-EM structure = biological target: the molecule itself; assay: cryo-EM structure
Csy complex Cas8f N250A = biological target: T1, Csy complex Cas8f N250A (Pseudomonas aeruginosa PA14, UniProt Q02ML9;Q02MM0;Q02MM1;Q02MM2 1-434;1-327;1-342;1-187, N250A); assay: EMSA
T1 sequence 1: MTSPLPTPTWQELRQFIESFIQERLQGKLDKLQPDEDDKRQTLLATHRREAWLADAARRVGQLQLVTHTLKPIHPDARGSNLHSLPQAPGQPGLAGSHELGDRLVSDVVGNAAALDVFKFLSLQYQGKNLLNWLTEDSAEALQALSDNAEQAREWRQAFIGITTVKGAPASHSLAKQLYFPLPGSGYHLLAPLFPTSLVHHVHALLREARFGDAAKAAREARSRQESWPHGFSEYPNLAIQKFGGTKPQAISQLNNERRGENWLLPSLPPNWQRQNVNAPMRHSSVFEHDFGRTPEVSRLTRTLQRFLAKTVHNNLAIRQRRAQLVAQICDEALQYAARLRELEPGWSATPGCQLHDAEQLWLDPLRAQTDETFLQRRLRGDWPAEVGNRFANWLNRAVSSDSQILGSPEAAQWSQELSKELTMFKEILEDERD
T1 sequence 2: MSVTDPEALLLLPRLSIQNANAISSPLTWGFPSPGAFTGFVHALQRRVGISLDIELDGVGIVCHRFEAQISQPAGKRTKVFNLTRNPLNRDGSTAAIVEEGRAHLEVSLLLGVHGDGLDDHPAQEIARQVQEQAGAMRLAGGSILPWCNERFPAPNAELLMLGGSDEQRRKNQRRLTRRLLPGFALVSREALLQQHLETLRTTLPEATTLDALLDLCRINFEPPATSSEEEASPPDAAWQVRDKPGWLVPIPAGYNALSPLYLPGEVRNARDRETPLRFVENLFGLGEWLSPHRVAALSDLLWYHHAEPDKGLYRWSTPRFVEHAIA
T1 sequence 3: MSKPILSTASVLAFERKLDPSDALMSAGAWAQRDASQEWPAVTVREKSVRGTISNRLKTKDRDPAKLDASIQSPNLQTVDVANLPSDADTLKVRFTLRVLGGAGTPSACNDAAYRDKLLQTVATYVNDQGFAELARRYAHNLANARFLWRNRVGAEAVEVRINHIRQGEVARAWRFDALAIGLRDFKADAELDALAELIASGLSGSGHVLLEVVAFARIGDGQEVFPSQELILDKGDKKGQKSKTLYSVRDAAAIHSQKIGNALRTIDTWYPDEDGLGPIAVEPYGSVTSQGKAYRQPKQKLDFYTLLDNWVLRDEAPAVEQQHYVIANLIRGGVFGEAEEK
T1 sequence 4: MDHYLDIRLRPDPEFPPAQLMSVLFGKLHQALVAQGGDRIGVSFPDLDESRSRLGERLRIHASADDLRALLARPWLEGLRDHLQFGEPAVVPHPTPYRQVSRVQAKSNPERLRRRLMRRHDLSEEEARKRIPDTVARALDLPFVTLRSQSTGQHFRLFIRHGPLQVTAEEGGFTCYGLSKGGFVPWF

[1] = biological target: T2, Csy complex (type I-F, wild type) (Pseudomonas aeruginosa PA14, UniProt Q02ML9;Q02MM0;Q02MM1;Q02MM2 1-434;1-327;1-342;1-187); assay: cryo-EM
T2 sequence 1: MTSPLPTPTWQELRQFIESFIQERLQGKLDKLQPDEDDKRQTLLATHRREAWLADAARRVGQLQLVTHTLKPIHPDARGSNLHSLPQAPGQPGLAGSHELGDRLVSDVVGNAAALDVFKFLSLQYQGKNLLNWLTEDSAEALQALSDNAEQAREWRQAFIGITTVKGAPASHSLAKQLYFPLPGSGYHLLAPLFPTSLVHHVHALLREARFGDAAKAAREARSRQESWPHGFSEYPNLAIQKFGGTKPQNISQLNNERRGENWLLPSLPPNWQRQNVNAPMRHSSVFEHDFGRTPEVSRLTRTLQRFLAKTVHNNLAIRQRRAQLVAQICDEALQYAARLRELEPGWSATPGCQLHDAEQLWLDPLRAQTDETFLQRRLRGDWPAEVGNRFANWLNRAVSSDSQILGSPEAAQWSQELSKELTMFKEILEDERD
T2 sequence 2: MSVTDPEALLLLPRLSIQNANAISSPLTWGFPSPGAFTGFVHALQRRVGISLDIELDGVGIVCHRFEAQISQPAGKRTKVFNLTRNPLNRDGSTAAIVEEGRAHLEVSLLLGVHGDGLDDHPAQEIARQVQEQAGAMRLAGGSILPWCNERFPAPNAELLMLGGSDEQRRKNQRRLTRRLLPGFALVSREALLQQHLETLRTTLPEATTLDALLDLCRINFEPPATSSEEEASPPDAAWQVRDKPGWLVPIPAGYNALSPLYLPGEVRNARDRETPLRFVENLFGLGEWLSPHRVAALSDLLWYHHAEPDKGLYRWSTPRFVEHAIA
T2 sequence 3: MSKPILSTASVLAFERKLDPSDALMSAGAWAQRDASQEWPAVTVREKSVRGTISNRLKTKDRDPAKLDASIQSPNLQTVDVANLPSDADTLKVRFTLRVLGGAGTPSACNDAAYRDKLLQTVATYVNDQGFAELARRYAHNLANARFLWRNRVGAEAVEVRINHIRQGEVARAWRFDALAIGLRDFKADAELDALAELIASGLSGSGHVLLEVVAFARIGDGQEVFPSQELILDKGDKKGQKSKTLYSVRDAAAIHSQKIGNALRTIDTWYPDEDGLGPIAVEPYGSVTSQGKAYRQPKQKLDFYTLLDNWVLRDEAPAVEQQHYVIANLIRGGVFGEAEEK
T2 sequence 4: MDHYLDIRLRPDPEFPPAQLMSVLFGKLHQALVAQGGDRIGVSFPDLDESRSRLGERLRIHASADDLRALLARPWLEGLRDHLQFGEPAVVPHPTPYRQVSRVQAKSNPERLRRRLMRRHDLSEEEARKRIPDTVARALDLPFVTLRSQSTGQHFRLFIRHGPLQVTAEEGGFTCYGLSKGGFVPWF

[2] = biological target: T3, Csy complex (type I-F, wild type);Cas1-2/3 complex (Pseudomonas aeruginosa PA14;Pseudomonas …, UniProt Q02ML9;Q02MM0;Q02MM1;Q02MM2;Q02ML7;Q02ML8 1-434;1-327;1-342;1-187;1-324;1-1076, |); assay: EMSA
[3] = biological target: T2, Csy complex (type I-F, wild type); assay: EMSA
[4] = biological target: T3, Csy complex (type I-F, wild …); assay: EMSA; remark: listed apart in the source
[5] = biological target: T4, Csy complex Cas8f RBC mutant (Pseudomonas aeruginosa PA14, UniProt Q02ML9;Q02MM0;Q02MM1;Q02MM2 1-434;1-327;1-342;1-187, R282E;H283D;R299E;R302E); assay: EMSA
T4 sequence 1: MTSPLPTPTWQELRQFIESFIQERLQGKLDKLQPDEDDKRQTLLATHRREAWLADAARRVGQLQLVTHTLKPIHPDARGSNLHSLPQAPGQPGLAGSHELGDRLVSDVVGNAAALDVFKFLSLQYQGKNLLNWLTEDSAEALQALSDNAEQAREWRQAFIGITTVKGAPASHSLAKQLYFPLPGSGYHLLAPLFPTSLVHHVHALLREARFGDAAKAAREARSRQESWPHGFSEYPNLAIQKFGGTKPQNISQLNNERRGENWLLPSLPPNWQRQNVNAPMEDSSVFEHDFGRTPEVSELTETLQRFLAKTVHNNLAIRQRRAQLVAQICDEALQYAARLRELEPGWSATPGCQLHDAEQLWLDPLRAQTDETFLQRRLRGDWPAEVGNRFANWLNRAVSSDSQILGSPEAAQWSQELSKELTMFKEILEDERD
T4 sequence 2: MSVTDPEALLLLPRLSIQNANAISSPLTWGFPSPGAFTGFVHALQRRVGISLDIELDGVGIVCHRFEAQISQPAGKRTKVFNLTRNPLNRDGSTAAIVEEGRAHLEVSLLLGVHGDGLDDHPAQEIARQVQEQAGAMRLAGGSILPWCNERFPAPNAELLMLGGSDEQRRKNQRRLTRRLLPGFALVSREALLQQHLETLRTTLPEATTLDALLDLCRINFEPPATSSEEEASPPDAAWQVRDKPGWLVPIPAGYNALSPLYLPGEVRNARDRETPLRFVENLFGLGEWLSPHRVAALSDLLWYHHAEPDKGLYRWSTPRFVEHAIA
T4 sequence 3: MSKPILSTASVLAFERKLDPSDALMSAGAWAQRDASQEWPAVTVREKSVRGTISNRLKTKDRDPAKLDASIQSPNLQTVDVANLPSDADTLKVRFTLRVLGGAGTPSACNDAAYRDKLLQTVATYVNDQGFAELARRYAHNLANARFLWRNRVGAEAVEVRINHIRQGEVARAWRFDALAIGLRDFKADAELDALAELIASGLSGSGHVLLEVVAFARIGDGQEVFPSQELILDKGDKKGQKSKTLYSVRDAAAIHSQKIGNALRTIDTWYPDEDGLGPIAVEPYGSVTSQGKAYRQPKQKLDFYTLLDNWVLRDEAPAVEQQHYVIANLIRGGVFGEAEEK
T4 sequence 4: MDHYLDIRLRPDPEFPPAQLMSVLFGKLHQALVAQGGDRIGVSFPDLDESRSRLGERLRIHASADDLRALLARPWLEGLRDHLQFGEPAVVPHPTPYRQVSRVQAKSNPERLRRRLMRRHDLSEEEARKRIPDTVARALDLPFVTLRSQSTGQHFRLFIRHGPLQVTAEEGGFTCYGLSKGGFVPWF

T3 sequence (Q02ML7 whole entry, chain 5 of 2): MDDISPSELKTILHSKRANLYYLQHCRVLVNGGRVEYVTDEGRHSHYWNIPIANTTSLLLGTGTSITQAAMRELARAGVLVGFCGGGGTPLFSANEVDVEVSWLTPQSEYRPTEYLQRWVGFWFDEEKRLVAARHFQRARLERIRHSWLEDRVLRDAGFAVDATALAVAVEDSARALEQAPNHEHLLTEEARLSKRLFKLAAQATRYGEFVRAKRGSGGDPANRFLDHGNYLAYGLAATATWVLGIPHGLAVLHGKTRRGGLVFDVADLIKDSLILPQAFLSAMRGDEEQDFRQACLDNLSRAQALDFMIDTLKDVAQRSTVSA
T3 sequence (Q02ML8 whole entry, chain 6 of 2): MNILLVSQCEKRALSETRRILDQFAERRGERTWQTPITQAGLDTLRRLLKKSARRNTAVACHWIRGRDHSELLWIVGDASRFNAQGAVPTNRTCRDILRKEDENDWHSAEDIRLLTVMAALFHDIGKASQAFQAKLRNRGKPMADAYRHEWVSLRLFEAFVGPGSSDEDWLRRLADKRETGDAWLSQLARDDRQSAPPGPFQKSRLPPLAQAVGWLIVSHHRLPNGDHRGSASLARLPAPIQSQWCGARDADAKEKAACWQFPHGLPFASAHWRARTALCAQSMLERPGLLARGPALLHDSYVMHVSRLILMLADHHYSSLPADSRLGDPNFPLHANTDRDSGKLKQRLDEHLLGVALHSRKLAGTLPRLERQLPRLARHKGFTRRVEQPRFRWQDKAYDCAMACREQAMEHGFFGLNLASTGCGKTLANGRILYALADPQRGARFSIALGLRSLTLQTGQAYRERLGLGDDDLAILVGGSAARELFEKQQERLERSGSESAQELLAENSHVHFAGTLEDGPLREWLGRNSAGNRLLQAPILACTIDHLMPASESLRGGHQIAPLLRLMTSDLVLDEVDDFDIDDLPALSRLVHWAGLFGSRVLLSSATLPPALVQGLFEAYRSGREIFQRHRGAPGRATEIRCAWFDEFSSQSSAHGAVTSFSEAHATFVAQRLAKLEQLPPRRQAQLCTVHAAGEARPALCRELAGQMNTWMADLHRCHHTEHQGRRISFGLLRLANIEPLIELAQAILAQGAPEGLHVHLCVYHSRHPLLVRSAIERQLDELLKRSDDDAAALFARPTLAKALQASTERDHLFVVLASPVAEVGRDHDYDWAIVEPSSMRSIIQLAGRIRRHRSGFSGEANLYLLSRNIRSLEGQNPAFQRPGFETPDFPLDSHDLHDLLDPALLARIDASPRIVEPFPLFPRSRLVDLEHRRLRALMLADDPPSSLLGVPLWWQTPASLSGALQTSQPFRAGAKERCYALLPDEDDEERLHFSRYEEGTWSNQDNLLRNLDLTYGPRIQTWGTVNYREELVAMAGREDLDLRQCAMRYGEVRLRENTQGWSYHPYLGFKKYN

B1: Cas7f, backbone subunit of the Csy complex (natural protein, Pseudomonas aeruginosa (strain PA14))
chain: MSKPILSTASVLAFERKLDPSDALMSAGAWAQRDASQEWPAVTVREKSVRGTISNRLKTKDRDPAKLDASIQSPNLQTVDVANLPSDADTLKVRFTLRVLGGAGTPSACNDAAYRDKLLQTVATYVNDQGFAELARRYAHNLANARFLWRNRVGAEAVEVRINHIRQGEVARAWRFDALAIGLRDFKADAELDALAELIASGLSGSGHVLLEVVAFARIGDGQEVFPSQELILDKGDKKGQKSKTLYSVRDAAAIHSQKIGNALRTIDTWYPDEDGLGPIAVEPYGSVTSQGKAYRQPKQKLDFYTLLDNWVLRDEAPAVEQQHYVIANLIRGGVFGEAEEK
Q: Does B1 bind (cryo-EM structure)?
A: Result: binds

B2: 80-bp dsDNA target, GG PAM (dsDNA)
DNA 1: GCTGTACGTCACTATCGAAGCAATACAGGTAGACGCGGACATCAAGCCCGCCGTGAAGGTGCAGCTTCTCTACAGAGTGC
DNA 2: GCACTCTGTAGAGAAGCTGCACCTTCACGGCGGGCTTGATGTCCGCGTCTACCTGTATTGCTTCGATAGTGACGTACAGC
Q: B2 was tested. Which binding signal (Csy complex Cas8f N250A) did it give?
A: The binding signal was > 1000 fold decrease in affinity vs WT.

Q: Does B2 bind [1]?
A: Result: binds

Q: Does B2 bind [2]?
A: Result: binds

B3: 80-bp target, TT PAM, bubble +1 to +10 (dsDNA)
DNA 1: GCTGTACGTCACTATCGAAGCAATACAGGTAGACGCGGACATCAAGCCCGCCGTGAATTTGCAGCTTCTCTACAGAGTGC
DNA 2: GCACTCTGTAGAGAAGCTGCAAAAAGTGCCGCCGCTTGATGTCCGCGTCTACCTGTATTGCTTCGATAGTGACGTACAGC
Q: Does B3 bind [3]?
A: Result: binds

Q: Does B3 bind [4]?
A: Result: binds

B4: 80-bp target, CC PAM, bubble +1 to +10 (dsDNA)
DNA 1: GCTGTACGTCACTATCGAAGCAATACAGGTAGACGCGGACATCAAGCCCGCCGTGAACCTGCAGCTTCTCTACAGAGTGC
DNA 2: GCACTCTGTAGAGAAGCTGCAGGAAGTGCCGCCGCTTGATGTCCGCGTCTACCTGTATTGCTTCGATAGTGACGTACAGC
Q: Does B4 bind [3]?
A: Result: binds

Q: Does B4 bind [4]?
A: Result: binds

B5: 80-bp target, GG PAM, bubble +1 to +10 (dsDNA)
DNA 1: GCTGTACGTCACTATCGAAGCAATACAGGTAGACGCGGACATCAAGCCCGCCGTGAAGGTGCAGCTTCTCTACAGAGTGC
DNA 2: GCACTCTGTAGAGAAGCTGCACCAAGTGCCGCCGCTTGATGTCCGCGTCTACCTGTATTGCTTCGATAGTGACGTACAGC
Q: Does B5 bind [5]?
A: Result: binds

B6: 80-bp target, AA PAM, bubble +1 to +10 (dsDNA)
DNA 1: GCTGTACGTCACTATCGAAGCAATACAGGTAGACGCGGACATCAAGCCCGCCGTGAAAATGCAGCTTCTCTACAGAGTGC
DNA 2: GCACTCTGTAGAGAAGCTGCATTAAGTGCCGCCGCTTGATGTCCGCGTCTACCTGTATTGCTTCGATAGTGACGTACAGC
Q: Does B6 bind [3]?
A: Result: binds

Q: Does B6 bind [4]?
A: Result: binds
